The values that follow come from patent publication US20240009242A1 (STARKAGE THERAPEUTICS, published 2024).

Positions count from the first letter of the chain named. Names and notes keep the numbering of the source. Ends that are not written are not given here.

Assay [1] addresses T1, human DEP1 on the surface of fibroblasts (human) (UniProt Q12913).
T1 sequence: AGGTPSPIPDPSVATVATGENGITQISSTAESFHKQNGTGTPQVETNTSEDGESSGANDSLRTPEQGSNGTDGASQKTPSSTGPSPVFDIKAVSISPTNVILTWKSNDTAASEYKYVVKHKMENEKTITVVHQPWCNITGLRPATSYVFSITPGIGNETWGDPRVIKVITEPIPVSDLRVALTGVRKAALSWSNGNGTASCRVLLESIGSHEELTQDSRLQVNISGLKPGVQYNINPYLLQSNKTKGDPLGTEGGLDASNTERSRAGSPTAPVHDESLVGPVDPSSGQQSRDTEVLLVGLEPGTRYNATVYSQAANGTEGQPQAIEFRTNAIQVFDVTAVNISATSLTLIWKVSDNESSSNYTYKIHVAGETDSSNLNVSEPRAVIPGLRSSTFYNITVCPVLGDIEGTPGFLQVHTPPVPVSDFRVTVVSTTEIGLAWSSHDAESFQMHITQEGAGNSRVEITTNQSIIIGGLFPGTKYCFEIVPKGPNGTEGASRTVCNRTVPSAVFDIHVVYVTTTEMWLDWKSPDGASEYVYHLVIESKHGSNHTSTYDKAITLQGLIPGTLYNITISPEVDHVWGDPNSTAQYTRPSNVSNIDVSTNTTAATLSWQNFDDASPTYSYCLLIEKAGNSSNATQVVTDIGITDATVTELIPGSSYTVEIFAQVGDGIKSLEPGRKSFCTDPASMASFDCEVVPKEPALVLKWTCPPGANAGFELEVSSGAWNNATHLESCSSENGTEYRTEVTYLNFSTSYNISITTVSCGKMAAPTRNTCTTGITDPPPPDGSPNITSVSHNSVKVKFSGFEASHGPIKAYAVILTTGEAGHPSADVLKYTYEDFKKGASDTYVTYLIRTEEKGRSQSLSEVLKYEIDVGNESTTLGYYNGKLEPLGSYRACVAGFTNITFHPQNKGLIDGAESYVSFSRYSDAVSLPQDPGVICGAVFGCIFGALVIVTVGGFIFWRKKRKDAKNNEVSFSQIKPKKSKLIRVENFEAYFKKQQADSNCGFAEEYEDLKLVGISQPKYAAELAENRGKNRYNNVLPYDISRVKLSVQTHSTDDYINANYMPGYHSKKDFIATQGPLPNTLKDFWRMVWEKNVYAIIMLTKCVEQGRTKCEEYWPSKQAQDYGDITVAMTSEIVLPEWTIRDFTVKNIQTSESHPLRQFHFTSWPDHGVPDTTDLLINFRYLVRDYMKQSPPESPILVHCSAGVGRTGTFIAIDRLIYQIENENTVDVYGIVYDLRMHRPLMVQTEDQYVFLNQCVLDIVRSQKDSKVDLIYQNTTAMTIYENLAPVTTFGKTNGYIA
As to the kind of experiment: flow cytometry on IPF human lung fibroblasts; 0.5 µg per test; anti-6xHis tag PE secondary. (Flow cytometry measures light scatter and fluorescence of single cells or particles in a stream.)

In assay [2] the target is T1, human DEP1 on the surface of fibroblasts (human). As to the kind of experiment: flow cytometry on Wi-38 fibroblasts (PDL<20); 0.5 µg per test; anti-6xHis tag PE secondary.
Assay [3] has the same target. As to the kind of experiment: flow cytometry on COPD human lung fibroblasts; 0.5 µg per test; anti-6xHis tag PE secondary.
Assay [4] shares this target. As to the kind of experiment: flow cytometry on untreated GM21808 fibroblasts; 0.5 µg per test; anti-6xHis tag PE secondary.
For assay [5] the target is unchanged. Briefly: flow cytometry on NHLF (normal human lung fibroblasts); 0.5 µg per test; anti-6xHis tag PE secondary.
The target is the same in assay [6]. Briefly: flow cytometry on GM21808 fibroblasts treated with etoposide; 0.5 µg per test; anti-6xHis tag PE secondary.
Assay [7] addresses human DPP4 on the surface of fibroblasts (human) (UniProt P27487). As to the kind of experiment: flow cytometry on IPF human lung fibroblasts; 0.5 µg per test; anti-6xHis tag PE secondary.
The target is the same in assay [8]. As to the kind of experiment: flow cytometry on Wi-38 fibroblasts (PDL<20); 0.5 µg per test; anti-6xHis tag PE secondary.
For assay [9] the target is unchanged. As to the kind of experiment: flow cytometry on COPD human lung fibroblasts; 0.5 µg per test; anti-6xHis tag PE secondary.
Assay [10] has the same target. Briefly: flow cytometry on untreated GM21808 fibroblasts; 0.5 µg per test; anti-6xHis tag PE secondary.
The target is the same in assay [11]. As to the kind of experiment: flow cytometry on NHLF (normal human lung fibroblasts); 0.5 µg per test; anti-6xHis tag PE secondary.
The target is the same in assay [12]. As to the kind of experiment: flow cytometry on GM21808 fibroblasts treated with etoposide; 0.5 µg per test; anti-6xHis tag PE secondary.
A further assay concerns the target T2, hDEP1 Peptide #4 (human, also: conjugated to BSA).
T2 construct: also called hDEP1 Peptide #4/BSA
T2 peptide: ADVLKYTYEDFKKGASDT
Briefly: ELISA, soluble scFv produced in microtiter plate. On the procedure: 96 isolated clones from the second, third and fourth rounds of panning were hand-picked and used to produce the respective soluble scFv in microtiter plate. Each clone was then tested in ELISA against hDEP1 Peptide #4/BSA.
(In general: An ELISA detects its analyte on a solid surface through an enzyme-linked reagent.)

human DPP4 on the surface of fibroblasts (human), sequence (P27487 whole entry): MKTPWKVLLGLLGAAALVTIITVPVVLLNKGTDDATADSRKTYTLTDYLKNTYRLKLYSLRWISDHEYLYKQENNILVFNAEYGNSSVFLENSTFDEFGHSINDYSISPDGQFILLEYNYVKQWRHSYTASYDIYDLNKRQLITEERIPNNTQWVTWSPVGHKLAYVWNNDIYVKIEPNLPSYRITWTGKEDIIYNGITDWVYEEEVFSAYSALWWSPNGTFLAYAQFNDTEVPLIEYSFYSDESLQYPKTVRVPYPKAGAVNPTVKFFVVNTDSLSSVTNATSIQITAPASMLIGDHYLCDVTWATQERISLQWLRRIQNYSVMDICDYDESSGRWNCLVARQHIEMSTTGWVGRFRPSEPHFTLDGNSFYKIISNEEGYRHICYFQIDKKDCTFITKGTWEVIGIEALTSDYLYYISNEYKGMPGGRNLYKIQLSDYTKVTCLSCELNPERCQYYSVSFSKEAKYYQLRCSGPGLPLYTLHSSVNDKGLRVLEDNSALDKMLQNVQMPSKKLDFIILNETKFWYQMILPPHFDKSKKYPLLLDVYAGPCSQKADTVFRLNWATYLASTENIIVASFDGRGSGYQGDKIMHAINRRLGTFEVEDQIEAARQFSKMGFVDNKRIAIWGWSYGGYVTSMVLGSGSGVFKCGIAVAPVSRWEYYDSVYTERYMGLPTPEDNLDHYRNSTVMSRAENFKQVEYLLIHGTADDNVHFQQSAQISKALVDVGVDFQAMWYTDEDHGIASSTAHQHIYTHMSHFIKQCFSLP

B1: 5738-13-R2A-H4 (scFv, part only; not given: linker and His-Flag tag, V domains shown, not shown: another chain or arm of the molecule; small tags and cut ends)
VH: EVKLVESGGGLVQPGRSLKLSCAASGFTFSNYYMAWVRQAPTKGLEWVAYITNGFGSTYYRDSVKGRFTISRDNAKSTLYLQMDSLRSEDTATYYCSTVPLGAFVSWGQGTLVTVSS
VL: DIQMTQTPHSLSASLGETVSIECLASEGISNYLAWYQQKPGKSPQLLISYANPLHDGVPSRFSGSGSGTQFSLKIRNMQPEDEGVYYCQQGYKFPYTFGAGTKLELT
Consider B1, for which the MFI was found to be 5020 in assay [1]; 891 in [2]; 1480 in [3]; 980 in assay [4]; 1310 in assay [5]; 2210 in [6]. Further, the percentage of positive cells in assay [1] came to 40%; in [2], 4.88%; in assay [3], 0.39%; in assay [4], 2.5%; in assay [5], 0.58%; in assay [6], 12.5%.

B2: 5826-13-R3A-D5 (scFv, part only; not given: linker and His-Flag tag, V domains shown, not shown: another chain or arm of the molecule; small tags and cut ends)
VH: EVKLVESGPGLVKPSQSLSLTCSVTGYFITGNYLAWIRKFPGNKMEWIGHIKSSGTTTYNPSLKSRVSITRDTSKNQFFLQLNSVTSEDTATYYCARHGHYVMDVWGQGASVTVSS
VL: DIVLTQSPVLAVSLGQRATISCRASQSVSTSTYNFMHWYQQKPGQQPRLLIYDASHLASSVPARFSGSGSGTDFTLTINPVQADDIATYYCQQSRELPLTFGSGTKLEIK
B2: the MFI came out at 11500 in assay [7]; 581 in assay [8]; 4060 in assay [9]; 1210 in assay [10]; 1740 in [11]; 2730 in [12]. The percentage of positive cells in assay [7] was found to be 62.7%; in assay [8], 0%; in assay [9] it was 10.7%; in assay [10] it was 5.02%; in assay [11], 2.02%; in assay [12] it was 16.1%.

B3: 5826-13-R4A-H5 (scFv, part only; not given: linker and His-Flag tag, V domains shown, not shown: another chain or arm of the molecule; large carriers; small tags and cut ends)
VH: EVQLQQSGAGLTKPGGSVKISCKVSGYTFTTYDIGWLKQRPGQALEWIGSINPGGGGTGYNEKFKGKATLTVDKSSSTAFMQLSSLTPEDTAVYYCARPLRRVLDYWGQGVLVTVSS
VL: DIQLTQSPSSLPASLGERVTISCRASQGISNKLNWYQQKPDGTIKPLIYYTSNLQSGVPSRFSGSGSGTDYSLTISSLEPEDFAMYYCQQDASFPPTFGGGTKLELK
For the molecule B3, the MFI in assay [7] was 16700; in assay [8], 574; in assay [9], 10100; in assay [10] it was 1940; in [11], 3650; in assay [12] it was 10900. Also, the percentage of positive cells in assay [7] was 79.5%; in [8], 0.01%; in assay [9], 66.5%; in assay [10], 8.13%; in assay [11], 11%; in assay [12] it was 61.9%.

B4: 5738-10-R3A-D5 (scFv, part only; not given: linker and His-Flag tag, V domains shown, not shown: another chain or arm of the molecule; small tags and cut ends)
VH: EVQLQQSGAELAKPGSSVKISCKASGYTFTSYYISWIKQTTGQGLEYIGYINTGSGGTNYNEKFKGKATLTVDKSSSTAFMQLSSLTPDDSAVYYCARDKWVDWGQGVMVTVSS
VL: DILMTQSPSSMSVSLGDTVTITCRASQDVGIYVNWFQQKPGKPPRRMIYRATNLADGVPSRFSGSRSGSNYSLTIRSLESEDVADYHCLQYDEWPYTFGAGTKLELK
Regarding B4, the MFI turned out to be 3500 in assay [1]; 1040 in assay [2]; 1440 in assay [3]; 632 in [4]; 1250 in assay [5]; 1380 in assay [6]. Besides, the percentage of positive cells in [1] was found to be 22.3%; in assay [2] it was 4.81%; in assay [3] it was 0.06%; in assay [4], 0.07%; in assay [5], 0.08%; in assay [6], 6.57%.

B5: 5738-10-R4A-G11 (scFv, V domains shown)
VH: QVQLQQPRAELAKPGSSVKISCKASGYTFTNYSISWIKQTTGQGLEYIGYIYPGSGDTNYNEKFKGKATLTVDKSSSTAFMQLSSLTPDDSAVYYCARYFDHWGQGTLVTVSS
VL: B4 VL with P43S, N53T, N70D, R76S, W94Y, Y96P, A100S, L106I
notes: anti-hDEP1 scFv, rat 10 library, format VH/VL-6xHis-Flag
Take B5: the binding result with hDEP1 Peptide #4 was “binds”.

B6: 5738-10-R4A-E7 (scFv, V domains shown)
VH: QVQLKQSGVELAKPGSSVKISCKASGYTFTSDSISWIKQTTGQGLEYIGYIHPGSGVTNYNEKFKGKATLTVDKSSSTAFMQLSSLTPDDSAIYYCARYFDYWGQGVMVTVSS
VL: B4 VL with K39I, P43S, M47L, N70D, R76A, W94F, Y96P, A100S, L106I
notes: as for B5
In the case of B6, in the assay with hDEP1 Peptide #4, the binding result is listed as “binds”.

B7: 5738-10-R4A-F12 (scFv, V domains shown)
VH: B6 VH with Q1E, K5Q
VL: B4 VL with P43S, Y49H, N70D, R76S, W94Y, Y96P, A100S, L106I
notes: as for B5
For B7, in the assay with hDEP1 Peptide #4, the binding result is “binds”.

B8: 5738-10-R4A-E9 (scFv, V domains shown)
VH: B6 VH with V9A, D32Y, S33Y
VL: B4 VL with L15Q, P43S, Y49H, N70D, R76T, W94Y, Y96P, A100S, K103N, L106I
notes: as for B5
Take B8: in the assay with hDEP1 Peptide #4, the binding result is listed as “binds”.

B9: 5738-10-R4A-G4 (scFv, V domains shown)
VH: B6 VH with Q1E, K5Q, K65R
VL: B4 VL with L3V, P43S, N70D, R76A, W94F, Y96P, A100S, L106I
notes: as for B5
Take B9: the binding result in the assay with hDEP1 Peptide #4 is on record as “binds”.
